*1 amine or outer side, *2 acyl side, *3 side chain or, on linkers, in order; H or OH if unused. [ ]: non-standard residue; d: D form. The star is where a group is joined. Achc(cis-1,4) = O=C([C@H]1CC[C@@H](N[*:1])CC1)[*:2]; Achc(trans-4) = O=C([C@H]1CC[C@H](N[*:1])CC1)[*:2]; Palmitoyl = CCCCCCCCCCCCCCCC(=O)*; 3Amb = NCc1cccc(C(=O)O)c1; Octanoyl = CCCCCCCC(=O)*; Aib = CC(C)(N)C(=O)O; Inp = O=C(O)C1CCNCC1; Octyl = CCCCCCCC*
B1: H-Inp-S-S(O-octyl)-FLSPEHQRVQQRKESKKPPAKL-K(hexadecanoyl)-PR-OH (peptide)
peptide: H-[Inp]SS(Octyl)FLSPEHQRVQQRKESKKPPAKLK(Palmitoyl)PR-OH
SMILES: CCCCCCCCCCCCCCCC(=O)NCCCC[C@H](NC(=O)[C@H](CC(C)C)NC(=O)[C@H](CCCCN)NC(=O)[C@H](C)NC(=O)[C@@H]1CCCN1C(=O)[C@@H]1CCCN1C(=O)[C@H](CCCCN)NC(=O)[C@H](CCCCN)NC(=O)[C@H](CO)NC(=O)[C@H](CCC(=O)O)NC(=O)[C@H](CCCCN)NC(=O)[C@H](CCCNC(=N)N)NC(=O)[C@H](CCC(N)=O)NC(=O)[C@H](CCC(N)=O)NC(=O)[C@@H](NC(=O)[C@H](CCCNC(=N)N)NC(=O)[C@H](CCC(N)=O)NC(=O)[C@H](Cc1c[nH]cn1)NC(=O)[C@H](CCC(=O)O)NC(=O)[C@@H]1CCCN1C(=O)[C@H](CO)NC(=O)[C@H](CC(C)C)NC(=O)[C@H](Cc1ccccc1)NC(=O)[C@H](COCCCCCCCC)NC(=O)[C@H](CO)NC(=O)C1CCNCC1)C(C)C)C(=O)N1CCC[C@H]1C(=O)N[C@@H](CCCNC(=N)N)C(=O)O
B2: H-Mamb-S(O-octanoyl)-FLSPEHQRVQQRKESKKPPAKLQPR-OH (peptide)
peptide: H-[3Amb]S(Octanoyl)FLSPEHQRVQQRKESKKPPAKLQPR-OH
SMILES: CCCCCCCC(=O)OC[C@H](NC(=O)c1cccc(CN)c1)C(=O)N[C@@H](Cc1ccccc1)C(=O)N[C@@H](CC(C)C)C(=O)N[C@@H](CO)C(=O)N1CCC[C@H]1C(=O)N[C@@H](CCC(=O)O)C(=O)N[C@@H](Cc1c[nH]cn1)C(=O)N[C@@H](CCC(N)=O)C(=O)N[C@@H](CCCNC(=N)N)C(=O)N[C@H](C(=O)N[C@@H](CCC(N)=O)C(=O)N[C@@H](CCC(N)=O)C(=O)N[C@@H](CCCNC(=N)N)C(=O)N[C@@H](CCCCN)C(=O)N[C@@H](CCC(=O)O)C(=O)N[C@@H](CO)C(=O)N[C@@H](CCCCN)C(=O)N[C@@H](CCCCN)C(=O)N1CCC[C@H]1C(=O)N1CCC[C@H]1C(=O)N[C@@H](C)C(=O)N[C@@H](CCCCN)C(=O)N[C@@H](CC(C)C)C(=O)N[C@@H](CCC(N)=O)C(=O)N1CCC[C@H]1C(=O)N[C@@H](CCCNC(=N)N)C(=O)O)C(C)C
B3: H-Inp-S-S(O-octyl)-FLSPEHQRVQQRKES-K(hexadecanoyl)-KPPAKLQPR-OH (peptide)
peptide: H-[Inp]SS(Octyl)FLSPEHQRVQQRKESK(Palmitoyl)KPPAKLQPR-OH
SMILES: CCCCCCCCCCCCCCCC(=O)NCCCC[C@H](NC(=O)[C@H](CO)NC(=O)[C@H](CCC(=O)O)NC(=O)[C@H](CCCCN)NC(=O)[C@H](CCCNC(=N)N)NC(=O)[C@H](CCC(N)=O)NC(=O)[C@H](CCC(N)=O)NC(=O)[C@@H](NC(=O)[C@H](CCCNC(=N)N)NC(=O)[C@H](CCC(N)=O)NC(=O)[C@H](Cc1c[nH]cn1)NC(=O)[C@H](CCC(=O)O)NC(=O)[C@@H]1CCCN1C(=O)[C@H](CO)NC(=O)[C@H](CC(C)C)NC(=O)[C@H](Cc1ccccc1)NC(=O)[C@H](COCCCCCCCC)NC(=O)[C@H](CO)NC(=O)C1CCNCC1)C(C)C)C(=O)N[C@@H](CCCCN)C(=O)N1CCC[C@H]1C(=O)N1CCC[C@H]1C(=O)N[C@@H](C)C(=O)N[C@@H](CCCCN)C(=O)N[C@@H](CC(C)C)C(=O)N[C@@H](CCC(N)=O)C(=O)N1CCC[C@H]1C(=O)N[C@@H](CCCNC(=N)N)C(=O)O
B4: H-[DPro]-S-S(O-octyl)-FLSPEHQRVQQRKESKKPPAKLQPR-OH (peptide)
peptide: XSSFLSPEHQRVQQRKESKKPPAKLQPR
modifications: DPro at position 1; Ser(O-octyl) at position 3; C-terminal -OH
B5: H-[tACC]-S(O-octanoyl)-FLSPEHQRVQQRKESKKPPAKLQPR-OH (peptide)
peptide: H-[Achc(trans-4)]S(Octanoyl)FLSPEHQRVQQRKESKKPPAKLQPR-OH
SMILES: CCCCCCCC(=O)OC[C@H](NC(=O)[C@H]1CC[C@H](N)CC1)C(=O)N[C@@H](Cc1ccccc1)C(=O)N[C@@H](CC(C)C)C(=O)N[C@@H](CO)C(=O)N1CCC[C@H]1C(=O)N[C@@H](CCC(=O)O)C(=O)N[C@@H](Cc1c[nH]cn1)C(=O)N[C@@H](CCC(N)=O)C(=O)N[C@@H](CCCNC(=N)N)C(=O)N[C@H](C(=O)N[C@@H](CCC(N)=O)C(=O)N[C@@H](CCC(N)=O)C(=O)N[C@@H](CCCNC(=N)N)C(=O)N[C@@H](CCCCN)C(=O)N[C@@H](CCC(=O)O)C(=O)N[C@@H](CO)C(=O)N[C@@H](CCCCN)C(=O)N[C@@H](CCCCN)C(=O)N1CCC[C@H]1C(=O)N1CCC[C@H]1C(=O)N[C@@H](C)C(=O)N[C@@H](CCCCN)C(=O)N[C@@H](CC(C)C)C(=O)N[C@@H](CCC(N)=O)C(=O)N1CCC[C@H]1C(=O)N[C@@H](CCCNC(=N)N)C(=O)O)C(C)C
B6: H-Inp-S-S(O-octyl)-FLSPEHQRV-K(hexadecanoyl)-QRKESKKPPAKLQPR-OH (peptide)
peptide: H-[Inp]SS(Octyl)FLSPEHQRVK(Palmitoyl)QRKESKKPPAKLQPR-OH
SMILES: CCCCCCCCCCCCCCCC(=O)NCCCC[C@H](NC(=O)[C@@H](NC(=O)[C@H](CCCNC(=N)N)NC(=O)[C@H](CCC(N)=O)NC(=O)[C@H](Cc1c[nH]cn1)NC(=O)[C@H](CCC(=O)O)NC(=O)[C@@H]1CCCN1C(=O)[C@H](CO)NC(=O)[C@H](CC(C)C)NC(=O)[C@H](Cc1ccccc1)NC(=O)[C@H](COCCCCCCCC)NC(=O)[C@H](CO)NC(=O)C1CCNCC1)C(C)C)C(=O)N[C@@H](CCC(N)=O)C(=O)N[C@@H](CCCNC(=N)N)C(=O)N[C@@H](CCCCN)C(=O)N[C@@H](CCC(=O)O)C(=O)N[C@@H](CO)C(=O)N[C@@H](CCCCN)C(=O)N[C@@H](CCCCN)C(=O)N1CCC[C@H]1C(=O)N1CCC[C@H]1C(=O)N[C@@H](C)C(=O)N[C@@H](CCCCN)C(=O)N[C@@H](CC(C)C)C(=O)N[C@@H](CCC(N)=O)C(=O)N1CCC[C@H]1C(=O)N[C@@H](CCCNC(=N)N)C(=O)O
B7: H-[DPro]-S-S(O-octyl)-FLSPEHQRVQQRKES-K(hexadecanoyl)-KPPAKLQPR-OH (peptide)
peptide: XSSFLSPEHQRVQQRKESKKPPAKLQPR
modifications: DPro at position 1; Ser(O-octyl) at position 3; K(hexadecanoyl) at position 19; C-terminal -OH
B8: H-PS-S(O-octyl)-FLSPEHQRVQQRKESKKPPAKLQPR-OH (peptide)
peptide: H-PSS(Octyl)FLSPEHQRVQQRKESKKPPAKLQPR-OH
B9: H-[cACC]-S(O-octanoyl)-FLSPEHQRVQQRKESKKPPAKLQPR-OH (peptide)
peptide: H-[Achc(cis-1,4)]S(Octanoyl)FLSPEHQRVQQRKESKKPPAKLQPR-OH
SMILES: CCCCCCCC(=O)OC[C@H](NC(=O)[C@H]1CC[C@@H](N)CC1)C(=O)N[C@@H](Cc1ccccc1)C(=O)N[C@@H](CC(C)C)C(=O)N[C@@H](CO)C(=O)N1CCC[C@H]1C(=O)N[C@@H](CCC(=O)O)C(=O)N[C@@H](Cc1c[nH]cn1)C(=O)N[C@@H](CCC(N)=O)C(=O)N[C@@H](CCCNC(=N)N)C(=O)N[C@H](C(=O)N[C@@H](CCC(N)=O)C(=O)N[C@@H](CCC(N)=O)C(=O)N[C@@H](CCCNC(=N)N)C(=O)N[C@@H](CCCCN)C(=O)N[C@@H](CCC(=O)O)C(=O)N[C@@H](CO)C(=O)N[C@@H](CCCCN)C(=O)N[C@@H](CCCCN)C(=O)N1CCC[C@H]1C(=O)N1CCC[C@H]1C(=O)N[C@@H](C)C(=O)N[C@@H](CCCCN)C(=O)N[C@@H](CC(C)C)C(=O)N[C@@H](CCC(N)=O)C(=O)N1CCC[C@H]1C(=O)N[C@@H](CCCNC(=N)N)C(=O)O)C(C)C
B10: H-PS-S(O-octyl)-FLSPEHQRVQQRKES-K(hexadecanoyl)-KPPAKLQPR-OH (peptide)
peptide: H-PSS(Octyl)FLSPEHQRVQQRKESK(Palmitoyl)KPPAKLQPR-OH
SMILES: CCCCCCCCCCCCCCCC(=O)NCCCC[C@H](NC(=O)[C@H](CO)NC(=O)[C@H](CCC(=O)O)NC(=O)[C@H](CCCCN)NC(=O)[C@H](CCCNC(=N)N)NC(=O)[C@H](CCC(N)=O)NC(=O)[C@H](CCC(N)=O)NC(=O)[C@@H](NC(=O)[C@H](CCCNC(=N)N)NC(=O)[C@H](CCC(N)=O)NC(=O)[C@H](Cc1c[nH]cn1)NC(=O)[C@H](CCC(=O)O)NC(=O)[C@@H]1CCCN1C(=O)[C@H](CO)NC(=O)[C@H](CC(C)C)NC(=O)[C@H](Cc1ccccc1)NC(=O)[C@H](COCCCCCCCC)NC(=O)[C@H](CO)NC(=O)[C@@H]1CCCN1)C(C)C)C(=O)N[C@@H](CCCCN)C(=O)N1CCC[C@H]1C(=O)N1CCC[C@H]1C(=O)N[C@@H](C)C(=O)N[C@@H](CCCCN)C(=O)N[C@@H](CC(C)C)C(=O)N[C@@H](CCC(N)=O)C(=O)N1CCC[C@H]1C(=O)N[C@@H](CCCNC(=N)N)C(=O)O
B11: H-Aib-S-S(O-octyl)-FLSPEHQRVQQRKESKKPPAKLQPR-OH (peptide)
peptide: H-[Aib]SS(Octyl)FLSPEHQRVQQRKESKKPPAKLQPR-OH
SMILES: CCCCCCCCOC[C@H](NC(=O)[C@H](CO)NC(=O)C(C)(C)N)C(=O)N[C@@H](Cc1ccccc1)C(=O)N[C@@H](CC(C)C)C(=O)N[C@@H](CO)C(=O)N1CCC[C@H]1C(=O)N[C@@H](CCC(=O)O)C(=O)N[C@@H](Cc1c[nH]cn1)C(=O)N[C@@H](CCC(N)=O)C(=O)N[C@@H](CCCNC(=N)N)C(=O)N[C@H](C(=O)N[C@@H](CCC(N)=O)C(=O)N[C@@H](CCC(N)=O)C(=O)N[C@@H](CCCNC(=N)N)C(=O)N[C@@H](CCCCN)C(=O)N[C@@H](CCC(=O)O)C(=O)N[C@@H](CO)C(=O)N[C@@H](CCCCN)C(=O)N[C@@H](CCCCN)C(=O)N1CCC[C@H]1C(=O)N1CCC[C@H]1C(=O)N[C@@H](C)C(=O)N[C@@H](CCCCN)C(=O)N[C@@H](CC(C)C)C(=O)N[C@@H](CCC(N)=O)C(=O)N1CCC[C@H]1C(=O)N[C@@H](CCCNC(=N)N)C(=O)O)C(C)C
B12: H-Aib-S-S(O-octyl)-FLSPEHQRVQQRKES-K(hexadecanoyl)-KPPAKLQPR-OH (peptide)
peptide: H-[Aib]SS(Octyl)FLSPEHQRVQQRKESK(Palmitoyl)KPPAKLQPR-OH
SMILES: CCCCCCCCCCCCCCCC(=O)NCCCC[C@H](NC(=O)[C@H](CO)NC(=O)[C@H](CCC(=O)O)NC(=O)[C@H](CCCCN)NC(=O)[C@H](CCCNC(=N)N)NC(=O)[C@H](CCC(N)=O)NC(=O)[C@H](CCC(N)=O)NC(=O)[C@@H](NC(=O)[C@H](CCCNC(=N)N)NC(=O)[C@H](CCC(N)=O)NC(=O)[C@H](Cc1c[nH]cn1)NC(=O)[C@H](CCC(=O)O)NC(=O)[C@@H]1CCCN1C(=O)[C@H](CO)NC(=O)[C@H](CC(C)C)NC(=O)[C@H](Cc1ccccc1)NC(=O)[C@H](COCCCCCCCC)NC(=O)[C@H](CO)NC(=O)C(C)(C)N)C(C)C)C(=O)N[C@@H](CCCCN)C(=O)N1CCC[C@H]1C(=O)N1CCC[C@H]1C(=O)N[C@@H](C)C(=O)N[C@@H](CCCCN)C(=O)N[C@@H](CC(C)C)C(=O)N[C@@H](CCC(N)=O)C(=O)N1CCC[C@H]1C(=O)N[C@@H](CCCNC(=N)N)C(=O)O

target: human growth hormone secretagogue receptor type 1a (human, UniProt Q92847 1-366); assay: cell-based or functional assay
Sequence (Q92847 whole entry): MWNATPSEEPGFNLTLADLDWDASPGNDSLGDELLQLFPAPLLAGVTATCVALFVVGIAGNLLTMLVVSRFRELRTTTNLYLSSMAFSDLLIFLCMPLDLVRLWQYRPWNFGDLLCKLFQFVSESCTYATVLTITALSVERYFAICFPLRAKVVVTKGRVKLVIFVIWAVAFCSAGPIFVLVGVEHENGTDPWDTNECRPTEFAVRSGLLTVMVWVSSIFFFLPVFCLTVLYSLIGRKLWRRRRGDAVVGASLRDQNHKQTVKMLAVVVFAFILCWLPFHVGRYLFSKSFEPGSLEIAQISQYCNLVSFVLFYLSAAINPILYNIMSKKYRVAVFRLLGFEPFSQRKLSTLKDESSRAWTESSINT

| EC50 (nM); Ca2+ induction in HEK293 cells stably expressing the human ghrelin receptor | Binder |
| --- | --- |
| 1.18 nM | B1 |
| 1.56 nM | B2 |
| 2.52 nM | B3 |
| 0.77 nM | B4 |
| 1.89 nM | B5 |
| 2.55 nM | B6 |
| 4.63 nM | B7 |
| 0.579 nM | B8 |
| 0.379 nM | B9 |
| 2.88 nM | B10 |
| 0.46 nM | B11 |
| 2.9 nM | B12 |

Reference: patent publication US9657062B2, “Ghrelin analogues” (Zealand Pharma A/S, priority 2012, dated 2017)
